Measurements published in patent publication US20220242974A1 (QURE BIOTECHNOLOGY SHANGHAI, published 2022).

What follows are binders tested against PD-L1-his fusion protein (Homo sapiens (Human), UniProt Q9NZQ7 19-238) (assay: ELISA, PD-L1-his coated, culture supernatant of the clone).
Sequence of PD-L1-his fusion protein (Q9NZQ7 other isoform, or with tags, fused parts or gaps limits assumed): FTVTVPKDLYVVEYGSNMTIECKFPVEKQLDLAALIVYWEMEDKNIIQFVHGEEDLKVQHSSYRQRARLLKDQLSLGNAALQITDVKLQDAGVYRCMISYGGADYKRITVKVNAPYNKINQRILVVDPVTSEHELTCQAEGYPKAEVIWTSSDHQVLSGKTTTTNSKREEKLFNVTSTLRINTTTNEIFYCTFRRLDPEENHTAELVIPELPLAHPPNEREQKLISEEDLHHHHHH

| Binder | binding result |
| --- | --- |
| QP1147 nanobody (VHH, as m59) VHH: QVQLVESGGGSVQAGGSLTLSCAVSGNTYSTKYMGWFRQAPGKEREGVAAILAGGRNTYYADSVKGRFTISQDNAKNTVYLQMNSLKPEDTAMYYCAADTRAAFWYIGPLNSDQYNIWGQGTQVTVSS | binds |
| QP1155 nanobody (VHH, as m59) VHH: QVQLVESGGGSVQAGGSLTLSCEVSGSTYSTNYMGWFRQAPGKEREGVAAILAGGRNTDYADSVKGRFTISQDNAKNTVYLQMNSLKPEDTAMYYCAADTRAAFWYIGPLNSDQYNIWGQGTQVTVSS | binds |
| QP1148 nanobody (VHH, as m59) VHH: QVQLVESGGGSVQAGGSLTLSCAVSGNTYSTNYMGWFRQAPGKEREGVAAILAGGRNTAYADSVKGRFTISQDNAKNTVYLQMNSLKPEDTAMYYCAADTRAAFWNIGPLNSDQYNIWGQGTQVTVSS | binds |
| QP1157 nanobody (VHH, as m59) VHH: QVQLVESGGGSVQAGGSLTLSCAVSGNTYSTNYMGWFRQAPGKEREGVAAILVGGRNTYYADPVKGRFTISQDNAKNLVYLQMNSLKPEDTAMYYCAADTRAAFWNIGPLNSDQYNIWGQGTQVTVSS | binds |
| QP1145 nanobody (VHH, as m59) VHH: QVQLVESGGGSVQAGGSLTLSCAVSGNTYSTKYMAWFRQAPGKEREGVAAILAGGRNTSYADSVKGRFTISQDNAKNTVYLQTNSLKPEDTAMYYCAADTRAAFWYIGPLNSHQYNIWGQGTQVTVSS | binds |
| QP1160 nanobody (VHH, as m59) VHH: QVQLVESGGGSVQAGGSLTLSCAISGNTYSTKYMGWFRQAPGKEREGVAAILAGGRNTYYADSVKGRFTISQDNAKNTVYLQMNSLKPEDTAMYYCAADARAAFWYIGPLNSDQYNIWGQGTQVTVSS | binds |
| QP1150 nanobody (VHH, as m59) VHH: QVQLVESGGGSVQAGGSLTLSCAVSGNTYSTKYMGWFRQAPGKEREGVAAILAGGRNTHYADSVKGRFAISQDNAKNTVYLQMNSLKPEDTAMYYCAADTRAAFWNIGPLNSDQYNIWGQGTQVTVSS | binds |
| QP1159 nanobody (VHH, as m59) VHH: QVQLVESGGGSVQAGGSLTLSCAVSGNTYSTKYMGWFRQAPGKEREGVAAILAGGRNTSYADSVKGRFTISQDNAKNTVYLQMNSLKPEDTAMYYCAADTRAAFWYIGPLNSDQYNIWGQGTQVTVSS | binds |
| QP1161 nanobody (VHH, as m59) VHH: QVQLVESGGGSVQAGGSLTLSCAVSGNTYSTNYMAWFRQAPGKEREGVAAIRVGGRNTDYADSVKGRFTISQDNAKNTVYLQMNSLKPEDTAMYYCAADTRAAFWYIGPLNSDQYNIWGQGTQVTVSS | binds |
| QP1142 nanobody (VHH, as m59) VHH: QVQLVESGGGSVQAGGSLTLSCAVSGNTYSTNIMGWFRQAPGKEREGVAAILAGGRNTYYADSVKGRFTISQDNAKNTVYLQMNSLKPEDTAMYYCAADTRAAFWNIGPLNSDQYNIWGQGTQVTVSS | binds |
| QP1146 nanobody (VHH, as m59) VHH: QVQLVESGGGSVQAGGSLTLSCAVSGNTYSTNYMGWFRQAPGKEREGVAAILVGGRNTYYADSVKGRFTISQDNAKNLVYLQMNSLKPEDTAMYYCAADTRAAFWNIGPLNSDQYNIWGQGTQVTVSS | binds |
| QP1158 nanobody (VHH, as m59) VHH: QVQLVESGGGSVQAGGSLTLSCAVSGNTYSTKYMGWFRQAPGKEREGVAAILAGGRNTYYADSVKGRFTISQDNAKNTVYLRMNSLKPEDTAMYYCAADTRAALWYIGPLNSDQYNTWGQGTQVTVSS | binds |
| QP1156 nanobody (VHH, as m59) VHH: QVQLVESGGGSVQAGGSLTLSCAVSGNTYSTKYMGWFRQAPGKEREGVAAILAGGRNTYYADSVKGRFTISQDSAKNTVYLQMNSLKPEDTAMYYCAADTRAAFWYIGPLNSDQYNSWGQGTQVTVSS | binds |
| QP1139 nanobody (VHH, as m59) VHH: QVQLVESGGGSVQAGGSLTLSCAVSGNTYGTNAMGWFRQAPGKEREGVAAILGGGRNTYYADSVKGRFTISQDNAKNTVYLQMNSLKPEDTAMYYCAADTRAAFWNIGPLNSDQYNIWGQGTQVTVSS | binds |
| QP1152 nanobody (VHH, as m59) VHH: QVQLVESGGGSVQAGGSLTLSCAISGNTYSTKYMGWFRQAPGKEREGVAAILAGGRNTYYADSVKGRFTISQDNAKNTVYLQMHSLKPEDTAMYYCAADTRAAFWYIGPLNSDQYNLWGQGTQVTVSS | binds |
| QP1141 nanobody (VHH, as m59) VHH: QVQLVESGGGSVQAGGSLTLSCAVSGNTYSTNAMGWFRQAPGKEREGVAAILGGGRNTYYADSVKGRFTISQDNAKNTVYLQMNSLKPEDTAMYYCAADTRAAFWNIGPLNSDQYNIWGQGTQVTVSS | binds |
| QP1149 nanobody (VHH, as m59) VHH: QVQLVESGGGSVQAGGSLTLSCAVSGNTYSTNYMGWFRQAPGKEREGVAAILAGGRNTYYADSVKGRFTISQDNAKDTVYLQMNSLKPEDTAMYYCAADTRAAFWNIGPLNSDQYNIWGQGTQVTVSS | binds |
| QP1143 nanobody (VHH, as m59) VHH: QVQLVESGGGSVQAGGSLTLSCAVSGNTYSTKYMGWFRQAPGKEREGVAAILAGGRDTYYADSVKGRFTISQDNAKNTVYLQMNSLKPEDTAMYYCAADTRAAFWYIGPLNSDQYNIWGQGTQVTVSS | binds |
| QP1154 nanobody (VHH, as m59) VHH: QVQLVESGGGSVQAGGSLTLSCAVSGNTYSTNYMAWFRQAPGKEREGVAAIRAGGRNTDYADSVKGRFTISQDNAKNTVYLQMNSLKPEDTAMYYCAADTRAAFWYIGPLNSDQYNIWGQGTQVTVSS | binds |

The remaining lines, values ahead:

| binding result | Binder |
| --- | --- |
| binds | QP1151 nanobody (VHH, as m59) VHH: QVQLVESGGGSVQAGGSLTLSCAVSGNTYSTNYMGWFRQAPGKEREGVAAILTGGRNTYYADSVKGRFTISQDNAKNTVYLQMNSLKPEDTAMYYCAADTRAAFWNIGPLNSDQYNIWGQGTQVTVSS |
| binds | QP1153 nanobody (VHH, as m59) VHH: QVQLVESGGGSVQAGGSLTLSCAVSGNTYSTKYMGWFRQAPGKEREGVAAILAGGRNTDYADSVKGRFTISQDNAKNTVYLQMNSLKPEDTAMYYCAADTRAAFWSIGPLNSDQYNIWGQGTQVTVSS |
| binds | QP1140 nanobody (VHH, as m59) VHH: QVQLVESGGGSVQAGGSLTLSCVVSGNTYSTKYMGWFRQAPGKEREGVAAILAGGRNTYYADSVKGRFTISQDNAKNTVYLQMNSLKPEDTAMYYCAADTRAAFWNIGPLNSDQYNIWGQGTQVTVSS |
| binds | QP1121 nanobody (VHH, as m59) VHH: QVQLVESGGGSVHAGGSLRLSCVRVSMYTYTGTCMAWFRQAPGKEREGVAGLWTGDGVTYYADSVKGRFTISQDDAKNTLYLQMDSLKPEDTAMYYCASNGMCGQYWALEDEYKYWGQGTQVTVSS |
| binds | QP1130 nanobody (VHH, as m59) VHH: QVQLVESGGGLVQPGGSLRLSCAASGFTFSTSTMMWVRRAPGKGLEWVSGIHNDGGPIAYADSVKGRFTISRDNAKNTLYLQMTSLKSEDTALYYCARGWYFSGDYVPMTQGTQVTVSS |
| binds | QP1163 nanobody (VHH, as m59) VHH: QVQLVESGGGSVQSGGSLRLSCAASGFTYGTYAMSWFRQAPGKEREGVACIDIYGRTSYTDPVKGRFTISQDNAKNTLYLQMNSLKPEDTAMYYCAARDFGYCTASWVHAGFSRYWGQGTQVTVSS |
| binds | QP1164 nanobody (VHH, as m59) VHH: QVQLVESGGGSVQSGGSLRLSCAASGFTYGTYAMSWFRQTPGKEREGVACIDIYGRTSYTDPVKGRFTISQDNAKNTLYLQMNSLKPEDTAMYYCAARDFGYCTASWVHEGFSRYWGQGTQVTVSS |
| binds | QP1169 nanobody (VHH, as m59) VHH: QVQLVESGGGSVQSGGSLRLSCAASGFTYGTYAMSWFRQAPGKEREGVACIDIYGRTSYTDPVKGRFTISQDNAKNTLYLQMNSLKPGDTAMYYCAARDFGYCTASWVHEGFSRYWGQGTQVTVSS |
| binds | QP1165 nanobody (VHH, as m59) VHH: QVQLVESGGGSVQSGGSLRLSCAASGFTYGAYAMSWFRQAPGKEREGVACIDIYGRTSYTDPVKGRFTISQDNAKNTLYLQMNSLKPEDTAMYYCAARDFGYCTASWVHEGFSRYWGQGTQVTVSS |
| binds | QP1168 nanobody (VHH, as m59) VHH: QVQLVESGGGSVQSGGSLRLSCAASGFTYETYAMSWFRQAPGKEREGVACIDIYGRTSYTDPVKGRFTISQDNAKNTLYLQMNSLKPEDTAMYYCAARDFGYCTASWVHEGFSRYWGQGTQVTVSS |
| binds | QP1129 nanobody (VHH, as m59) VHH: QVQLVESGGGSVQSGGSLRLSCAASGYSSSRYSVGWFRQAPGKEREGVAGQTPRGTTTYADSVKDRFTISRDNAKNTVYLQMNSLKPEDTAMYYCAAGQALLWASLRQTSYQFWGQGTQVTVSS |
| binds | QP1123 nanobody (VHH, as m59) VHH: QVQLVESGGGSVQSGGSLRLSCAASGYTVRHYCMGWFRQTPGKEREGVASIDTFGIPKYADSVKGRFTISQDNAKNTLNLQMDSLKPEDTAMYFCAGRSYTNCRDGPPSASHYSHWGQGTQVTVSS |
| binds | QP1124 nanobody (VHH, as m59) VHH: QVQLVESGGGLVQPGGSLRLSCTAPGFTSNTCAMGWYRQAAGMQREWVSSISKYGITTYANSVKGRFTISKDKAEDTVYLQMNNLKPEDTAMYVCKTFSCRNRGGAYLADAWGQGTQVTVSS |
